Assay results taken from patent US20230157952A1, “METHOD FOR IMPROVING THE STABILITY OF A PHARMACEUTICAL COMPOSITION COMPRISING A HIGH PENETRATION DRUG, AND THE PHARMACEUTICAL COMPOSITION OBTAINED THEREFROM” (Techfields Inc., priority 2020, published 2023).
Blank lines part the entries; values can stand above or below the compound they belong to. Non-standard residues stand in square brackets, D forms with d. Arg(NO2) = N=C(NCCC[C@H](N)C(=O)O)N[N+](=O)[O-]

How the values were obtained:
[1] = Effect of concentration on the stability of the solution (purity over time); conditions: 1 equivalent sodium acetate in 50% ethanol at 25° C.
[2] = Effect of pH value on the stability of the solution (purity); format: physicochemical
[3] = Stability of the pure HPDs (dry solid) at 25° C./RH 60%; format: physicochemical; conditions: pure HPD, 25° C./RH 60%

Compound: H-Ala-Pro-Gly-Pro-Arg(NO2)—OCH2CH3•HCl (H-APGP[Arg(NO2)]-OEt; also: HCl salt)
Purity at Day 30 ([1]; 0.01 wt %): 55.6% | Purity at Day 90 ([1]; 0.01 wt %): 21.3% | Purity at Day 180 ([1]; 0.01 wt %): 0% | Purity at day 0 ([1]; 0.01 wt %): 98.3% | Purity at Day 30 ([1]; 0.1 wt %): 65.7% | Purity at Day 90 ([1]; 0.1 wt %): 30.2% | Purity at Day 180 ([1]; 0.1 wt %): 8.6% | Purity at day 0 ([1]; 0.1 wt %): 98.4% | Purity at Day 30 ([1]; 1 wt %): 91.3% | Purity at Day 90 ([1]; 1 wt %): 75.9% | Purity at Day 180 ([1]; 1 wt %): 56.6% | Purity at day 0 ([1]; 1 wt %): 98.5% | Purity at Day 30 ([1]; 3 wt %): 96.8% | Purity at Day 90 ([1]; 3 wt %): 92.1% | Purity at Day 180 ([1]; 3 wt %): 85.8% | Purity at day 0 ([1]; 3 wt %): 98.8% | Purity at Day 30 ([1]; 5 wt %): 97.1% | Purity at Day 90 ([1]; 5 wt %): 94.4% | Purity at Day 180 ([1]; 5 wt %): 89.7% | Purity at day 0 ([1]; 5 wt %): 98.9% | Purity at Day 30 ([1]; 7 wt %): 97.5% | Purity at Day 90 ([1]; 7 wt %): 95.0% | Purity at Day 180 ([1]; 7 wt %): 91.3% | Purity at day 0 ([1]; 7 wt %): 98.9% | Purity at Day 30 ([1]; 8 wt %): 97.6% | Purity at Day 90 ([1]; 8 wt %): 95.1% | Purity at Day 180 ([1]; 8 wt %): 91.4% | Purity at day 0 ([1]; 8 wt %): 98.8% | Purity at Day 30 ([1]; 10 wt %): 97.6% | Purity at Day 90 ([1]; 10 wt %): 95.2% | Purity at Day 180 ([1]; 10 wt %): 91.5% | Purity at day 0 ([1]; 10 wt %): 98.9% | Purity at Day 30 ([1]; 15 wt %): 97.6% | Purity at Day 90 ([1]; 15 wt %): 95.0% | Purity at Day 180 ([1]; 15 wt %): 91.4% | Purity at day 0 ([1]; 15 wt %): 98.8% | Purity at Day 30 ([1]; 20 wt %): 97.5% | Purity at Day 90 ([1]; 20 wt %): 95.1% | Purity at Day 180 ([1]; 20 wt %): 91.5% | Purity at day 0 ([1]; 20 wt %): 98.9% | Purity at Day 30 ([1]; 30 wt %): 97.6% | Purity at Day 90 ([1]; 30 wt %): 95.1% | Purity at Day 180 ([1]; 30 wt %): 91.7% | Purity at day 0 ([1]; 30 wt %): 98.9% | Purity at Day 30 ([1]; 50 wt %): 97.5% | Purity at Day 90 ([1]; 50 wt %): 95.2% | Purity at Day 180 ([1]; 50 wt %): 91.6% | Purity at day 0 ([1]; 50 wt %): 98.8% | pH at which the solution is stable ([2]; 5% solution in 25% ethanol at 25° C.): 3-6 | Time the solution can be stored at room temperature ([2]; 5% solution in 25% ethanol, pH 3-6): about 3 months

Compound: CCN(CC)CCOC(=O)[C@H](C)c1ccc(-c2ccccc2)c(F)c1.Cl [B-1-3, 2-(diethylamino)ethyl (R)-2-(2-fluoro-4-biphenyl)propionate•HCl salt]
Purity ([3]; 18 month): 98.1 ± 0.2 | Purity ([3]; 24 month): 98.0 ± 0.1

Compound: CCN(CC)CCOC(=O)[C@@H](C)c1ccc(-c2ccccc2)c(F)c1.Cl [B-1-2, 2-(diethylamino)ethyl (S)-2-(2-fluoro-4-biphenyl)propionate•HCl salt]
Purity ([3]; 3 month): 98.6 ± 0.1 | Purity ([3]; Day 0): 98.7 ± 0.2

Purity ([3]; 24 month): 98.0 ± 0.1 | Purity ([3]; Day 0): 98.6 ± 0.3
Compound: CCN(CC)CCOC(=O)[C@@H](C)c1ccc2cc(OC)ccc2c1.Cl [A-1-2, 2-(diethylamino)ethyl (S)-2-(6-methoxy-2-naphthyl) propionate•HCl salt]

Purity ([3]; 24 month): 98.0 ± 0.5
Compound: Br.CCN(CC)CCOC(=O)[C@H](C)c1ccc(CC(C)C)cc1 (racemic) [C-1-4, 2-(diethylamino)ethyl (R,S)-2-(p-isobutylphenyl)propionate•HBr salt]
